Measured values reported in publication PMC4260453 (Molecular microbiology, 2011).

T1: DnaE (Bacillus subtilis, UniProt O34623 1-1115)
T1 sequence: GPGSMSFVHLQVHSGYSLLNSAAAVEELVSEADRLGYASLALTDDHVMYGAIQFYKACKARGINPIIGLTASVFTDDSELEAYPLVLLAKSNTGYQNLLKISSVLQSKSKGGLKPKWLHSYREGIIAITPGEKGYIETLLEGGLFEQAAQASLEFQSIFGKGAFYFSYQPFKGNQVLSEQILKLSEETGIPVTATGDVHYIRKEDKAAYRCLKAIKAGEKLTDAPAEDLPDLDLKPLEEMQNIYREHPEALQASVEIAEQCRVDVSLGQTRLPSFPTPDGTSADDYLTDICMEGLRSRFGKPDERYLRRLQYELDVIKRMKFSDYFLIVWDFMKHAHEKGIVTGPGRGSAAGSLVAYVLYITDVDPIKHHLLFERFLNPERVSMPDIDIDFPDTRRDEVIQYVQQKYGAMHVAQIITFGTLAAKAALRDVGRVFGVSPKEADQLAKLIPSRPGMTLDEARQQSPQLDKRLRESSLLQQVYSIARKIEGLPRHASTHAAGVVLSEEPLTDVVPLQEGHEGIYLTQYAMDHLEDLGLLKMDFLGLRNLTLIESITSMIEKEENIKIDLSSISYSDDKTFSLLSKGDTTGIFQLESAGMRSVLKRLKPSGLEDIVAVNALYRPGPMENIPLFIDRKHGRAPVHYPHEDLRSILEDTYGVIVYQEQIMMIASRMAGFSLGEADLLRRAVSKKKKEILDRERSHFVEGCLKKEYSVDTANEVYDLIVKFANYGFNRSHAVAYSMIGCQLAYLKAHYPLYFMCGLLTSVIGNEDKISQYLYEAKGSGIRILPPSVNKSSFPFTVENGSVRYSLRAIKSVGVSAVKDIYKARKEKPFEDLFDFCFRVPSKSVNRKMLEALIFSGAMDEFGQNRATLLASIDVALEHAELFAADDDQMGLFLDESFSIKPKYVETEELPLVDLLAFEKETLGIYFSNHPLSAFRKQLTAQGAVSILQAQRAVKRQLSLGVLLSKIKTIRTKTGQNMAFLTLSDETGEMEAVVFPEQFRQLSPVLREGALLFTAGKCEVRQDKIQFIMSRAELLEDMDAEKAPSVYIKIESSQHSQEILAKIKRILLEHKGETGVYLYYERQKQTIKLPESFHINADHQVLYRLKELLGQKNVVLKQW


Target: T1, DnaE
Assay: far-Western, overlay or dot blot

binding result	Binder
binds	His6-SSB (natural protein, Bacillus subtilis, UniProt P37455 1-172, looked up) MLNRVVLVGRLTKDPELRYTPNGAAVATFTLAVNRTFTNQSGEREADFINCVTWRRQAENVANFLKKGSLAGVDGRLQTRNYENQQGQRVFVTEVQAESVQFLEPKNGGGSGSGGYNEGNSGGGQYFGGGQNDNPFGGNQNNQRRNQGNSFNDDPFANDGKPIDISDDDLPF
binds	MutS (natural protein, Bacillus subtilis) GPGSMAGYTPMIQQYLKIKAEHQDAFLFFRLGDFYEMFFEDAKKASQELEITLTSRDGGAAEKIPMCGVPYHSASAYIEQLIKKGYKVAICEQTEDPKAAKGVVKREVVQLITPGTVMDGKGIHESENNFIASVSACSNGYGLALSDLTTGENLAVLIERLEDVISEIYSVGAREIVVSGSLDADTVAQLRERCGATISIEDGETDEHVTIIEHLNNEDITKTFLRLYTYLKRTQKRSLDHLQPVQVYELEEAMKIDLYSKRNLELTETIRSKNKKGSLLWLLDETKTAMGGRLLKQWIDRPLIRVNQIEERQEMVETLMSHFFEREDLRERLKEVYDLERLAGRVAFGNVNARDLIQLKESLKQVPGIKQLVASLAHDKAKERAKRIDPCGDVLELLEEALYENPPLSVKEGNLIKDGYNQKLDEYRDASRNGKDWIARLEQQEREYTGIRSLKVGFNKVFGYYIEVTKANLHLLEEGRYERKQTLTNAERYITPELKEKEALILEAENNICELEYELFTELREKVKQYIPRLQQLAKQMSELDALQCFATISENRHYTKPEFSKDEVEVIEGRHPVVEKVMDSQEYVPNNCMMGDNRQMLLITGPNMSGKSTYMRQIALISIMAQIGCFVPAKKAVLPIFDQIFTRIGAADDLISGQSTFMVEMLEAKNAIVNATKNSLILFDEIGRGTSTYDGMALAQAIIEYVHDHIGAKTLFSTHYHELTVLEDKLPQLKNVHVRAEEYNGTVVFLHQIKEGAADKSYGIHVAQLAELPGDLIARAQDILKELEHSGNKPEVPVQKPQVKEEPAQLSFFDEAEKPAETPKLSKKEKQVIDAFKSLNILDMTPLEAMNEMYKLQKKLH
